T1: human TM4SF1 (transmembrane-4 L six family member-1) on HUVEC cells (UniProt P30408 1-202)
T1 chain: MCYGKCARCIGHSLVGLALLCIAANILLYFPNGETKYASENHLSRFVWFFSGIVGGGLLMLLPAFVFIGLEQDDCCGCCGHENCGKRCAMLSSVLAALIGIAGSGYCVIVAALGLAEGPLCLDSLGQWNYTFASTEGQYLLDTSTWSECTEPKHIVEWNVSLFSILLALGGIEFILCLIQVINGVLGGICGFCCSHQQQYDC


Tests used:
[1] = in vivo; cited from earlier work
[2] = metabolite of trastuzumab emtansine (Kadcyla); every 2 weeks; cited from earlier work
HUVEC (endothelial cell) = experiment: In vitro cell proliferation inhibition (killing) assay, HUVEC; format: cell-based, human; conditions: 5 days incubation
Protocol: Cells are incubated with antibody conjugate at various concentrations. The concentrations evaluated include a control, and five-fold dilution starting from 333.335 nM (333.335 nM, 66.667 nM, 13.334 nM, 2.667 nM, 0.533 nM (533.3360 pM), 106.6672 pM, 21.3334 pM, 4.2667 pM. Briefly, cells are seeded into 96-well plates a day before the antibody conjugates are added, whereupon cell viability is measured by PrestoBlue (ThermoFisher Scientific) through a plate reader (Varioskan™ LUX multimode microplate reader) five days after treatment with serial dilutions of the antibody conjugates. Cells are treated with media only or isotype matched control antibodies, as a negative control. The EC50 values are generated via GraphPad.
The effects of antibody drug-conjugates (drug to antibody ratio (DAR) varying from 1.8 to 4.2) containing a drug (maytansine) were assessed in cultured mouse (MS1) and human (HUVEC, A549, MiaPaCa2 and SKOV3) cells. Characteristics of the Exemplary Antibodies 1-5, each of which contains human IgG1 constant region with YTEC mutation, can be found in Table 3A. Cells were incubated for 5 days with the antibody drug conjugate before assessing cell viability on day 5.

[3] = biological target: T1, human TM4SF1 (transmembrane-4 L six …); experiment: flow cytometry cell binding; HUVEC cells
[4] = Hydrophobicity by hydrophobic interaction chromatography (HIC); format: physicochemical; parameters: unit not given here; conditions: for Hydrophobicity (HIC), Average: average of 3 runs
Protocol: The hydrophobicity of exemplary anti-TM4SF1 antibodies, and their Fc mutation containing variants were assessed in this study, using hydrophobic interaction chromatography. The tested antibodies were AGX-A07 (the “wt,” “C,” and “YTEC”); MS (the “wt,” “C,” and “YTEC”). An anti-Her2 antibody with an Fc mutation was used as a control. Both in case of AGX-A07 and the murine surrogate anti-TM4SF1 antibody, it was observed that the hydrophobicity increased with the “C” and “YTEC” mutations.

EC50 [3] [nM]	Molecule	Hydrophobicity (HIC), Run 1 [4]	Hydrophobicity (HIC), Run 2 [4]	Hydrophobicity (HIC), Run 3 [4]	Hydrophobicity (HIC), Average [4]	other results
–	COc1ccc(/C=C\c2cc(OC)c(OC)c(OC)c2)cc1OP(=O)(O)O [CA4P, Combretastatin]	–	–	–	–	Patients who experienced heart attacks while being treated [1]: seven
–	COc1cc2cc(c1Cl)N(C)C(=O)CC(O)C1(C)OC1C(C)C1CC(O)(NC(=O)O1)C(OC)/C=C/C=C(\C)C2 (stereo not drawn) [Maytansinol, maytansinol]	–	–	–	–	Found in plasma [2]: 7%
–	BrAc-Galactose-Sar-N-Me-Alanine-DM1 [Free LP]	–	–	–	–	EC50 (HUVEC (endothelial cell)): 906 nM
2.3	AGX-A07 variant comprising Fc region mutation N297C (antibody, V domains shown) VH: QIQLVQSGPELKKPGETVKISCKASGYTFTNYGVKWVKQAPGKDLKWMGWINTYTGNPIYAADFKGRFAFSLETSASTAFLQINNLKNEDTATYFCVRFQYGDYRYFDVWGAGTTVTVSS VL: QIILSQSPAILSASPGEKVTMTCRANSGISFINWYQQKPGSSPKPWIYGTANLASGVPARFGGSGSGTSYSLTISRVEAEDAATYYCQQWSSNPLTFGAGTKLELR	–	–	–	–	–
1.75	AGX-A07 variant comprising Fc region mutations N297C, M252Y, S254T and T256E (antibody, V domains shown) VH: QIQLVQSGPELKKPGETVKISCKASGYTFTNYGVKWVKQAPGKDLKWMGWINTYTGNPIYAADFKGRFAFSLETSASTAFLQINNLKNEDTATYFCVRFQYGDYRYFDVWGAGTTVTVSS VL: QIILSQSPAILSASPGEKVTMTCRANSGISFINWYQQKPGSSPKPWIYGTANLASGVPARFGGSGSGTSYSLTISRVEAEDAATYYCQQWSSNPLTFGAGTKLELR	–	–	–	–	–
2.16	AGX-A07 anti-TM4SF1 antibody (without Fc region mutations) (antibody, V domains shown) VH: QIQLVQSGPELKKPGETVKISCKASGYTFTNYGVKWVKQAPGKDLKWMGWINTYTGNPIYAADFKGRFAFSLETSASTAFLQINNLKNEDTATYFCVRFQYGDYRYFDVWGAGTTVTVSS VL: QIILSQSPAILSASPGEKVTMTCRANSGISFINWYQQKPGSSPKPWIYGTANLASGVPARFGGSGSGTSYSLTISRVEAEDAATYYCQQWSSNPLTFGAGTKLELR	–	–	–	–	–
–	A07-wt: AGX-A07 anti-TM4SF1 antibody without Fc region mutations (antibody, V domains shown) VH: QIQLVQSGPELKKPGETVKISCKASGYTFTNYGVKWVKQAPGKDLKWMGWINTYTGNPIYAADFKGRFAFSLETSASTAFLQINNLKNEDTATYFCVRFQYGDYRYFDVWGAGTTVTVSS VL: QIILSQSPAILSASPGEKVTMTCRANSGISFINWYQQKPGSSPKPWIYGTANLASGVPARFGGSGSGTSYSLTISRVEAEDAATYYCQQWSSNPLTFGAGTKLELR	5.547	5.523	5.568	5.55	–
–	A07C: AGX-A07 anti-TM4SF1 antibody with Fc region mutation N297C (the “C” variant) (antibody, V domains shown) VH: QIQLVQSGPELKKPGETVKISCKASGYTFTNYGVKWVKQAPGKDLKWMGWINTYTGNPIYAADFKGRFAFSLETSASTAFLQINNLKNEDTATYFCVRFQYGDYRYFDVWGAGTTVTVSS VL: QIILSQSPAILSASPGEKVTMTCRANSGISFINWYQQKPGSSPKPWIYGTANLASGVPARFGGSGSGTSYSLTISRVEAEDAATYYCQQWSSNPLTFGAGTKLELR	5.614	5.591	5.606	5.60	–
–	A07-YTEC: AGX-A07 with N297C in combination with M252Y, S254T, and T256E (the “YTEC” variant) (antibody, V domains shown) VH: QIQLVQSGPELKKPGETVKISCKASGYTFTNYGVKWVKQAPGKDLKWMGWINTYTGNPIYAADFKGRFAFSLETSASTAFLQINNLKNEDTATYFCVRFQYGDYRYFDVWGAGTTVTVSS VL: QIILSQSPAILSASPGEKVTMTCRANSGISFINWYQQKPGSSPKPWIYGTANLASGVPARFGGSGSGTSYSLTISRVEAEDAATYYCQQWSSNPLTFGAGTKLELR	5.781	5.77	5.888	5.81	–

— patent publication US20250152730A1, “ANTI-TM4SF1 ANTIBODY-DRUG CONJUGATES COMPRISING CLEAVABLE LINKERS AND METHODS OF USING SAME” (Angiex, Inc., priority 2022, published 2025)
